Experiment [1] has as its target human complement C3b (UniProt P01024). As to the kind of experiment: ELISA. To be noted: C3b-coated wells, 50 nM Fg detected with peroxidase-conjugated anti-Fg antibody, read off a plot.
Experiment [2] shares this target. The experiment is described as follows: flow cytometry on bacteria. To be noted: Alexa488-labeled Fg 60 µg/ml; Efb (mutants) 0.5 µM; serum-opsonized S. aureus; buffer control est. 65 MFI; parent: est. 1300; read off a plot.
Another experiment concerns the target human fibrinogen (human) (UniProt P02671).
UniProt P02671, sequence (P02671 36-866, chain 1 of 3): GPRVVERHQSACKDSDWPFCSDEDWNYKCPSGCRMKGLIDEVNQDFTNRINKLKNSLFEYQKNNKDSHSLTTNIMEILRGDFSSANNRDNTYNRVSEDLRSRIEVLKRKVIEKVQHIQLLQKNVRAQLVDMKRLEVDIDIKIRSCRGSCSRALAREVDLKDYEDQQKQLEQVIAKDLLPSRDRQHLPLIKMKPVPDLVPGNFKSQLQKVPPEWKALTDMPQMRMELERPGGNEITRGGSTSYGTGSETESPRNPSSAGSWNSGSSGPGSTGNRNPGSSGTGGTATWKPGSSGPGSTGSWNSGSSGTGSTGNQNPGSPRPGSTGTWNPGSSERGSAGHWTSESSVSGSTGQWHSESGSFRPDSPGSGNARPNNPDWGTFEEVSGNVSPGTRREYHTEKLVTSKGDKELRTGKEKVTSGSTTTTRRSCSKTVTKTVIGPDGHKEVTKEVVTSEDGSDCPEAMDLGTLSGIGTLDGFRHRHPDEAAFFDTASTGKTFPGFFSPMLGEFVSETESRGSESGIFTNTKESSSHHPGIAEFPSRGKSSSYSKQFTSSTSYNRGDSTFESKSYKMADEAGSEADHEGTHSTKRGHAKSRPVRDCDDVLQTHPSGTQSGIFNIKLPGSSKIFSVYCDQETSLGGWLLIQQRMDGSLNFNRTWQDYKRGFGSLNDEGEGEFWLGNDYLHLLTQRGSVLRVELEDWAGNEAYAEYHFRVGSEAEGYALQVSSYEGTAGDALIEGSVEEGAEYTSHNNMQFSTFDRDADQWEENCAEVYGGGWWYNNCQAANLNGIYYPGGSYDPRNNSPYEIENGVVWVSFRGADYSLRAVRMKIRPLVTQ
UniProt P02671, sequence (P02675 45-491, chain 2 of 3, further chain): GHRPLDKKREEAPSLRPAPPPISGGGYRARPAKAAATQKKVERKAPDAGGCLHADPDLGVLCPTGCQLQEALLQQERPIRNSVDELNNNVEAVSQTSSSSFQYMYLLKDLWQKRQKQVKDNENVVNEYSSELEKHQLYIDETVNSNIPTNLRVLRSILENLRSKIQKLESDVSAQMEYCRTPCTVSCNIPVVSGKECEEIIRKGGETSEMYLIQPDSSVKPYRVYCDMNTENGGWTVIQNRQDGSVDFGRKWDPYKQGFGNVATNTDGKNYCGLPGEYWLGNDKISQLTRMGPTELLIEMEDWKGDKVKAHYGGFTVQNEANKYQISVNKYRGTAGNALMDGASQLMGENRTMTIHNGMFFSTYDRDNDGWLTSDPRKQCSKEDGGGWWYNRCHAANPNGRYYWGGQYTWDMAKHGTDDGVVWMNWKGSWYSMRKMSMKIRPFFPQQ
UniProt P02671, sequence (P02679 27-453, chain 3 of 3, further chain): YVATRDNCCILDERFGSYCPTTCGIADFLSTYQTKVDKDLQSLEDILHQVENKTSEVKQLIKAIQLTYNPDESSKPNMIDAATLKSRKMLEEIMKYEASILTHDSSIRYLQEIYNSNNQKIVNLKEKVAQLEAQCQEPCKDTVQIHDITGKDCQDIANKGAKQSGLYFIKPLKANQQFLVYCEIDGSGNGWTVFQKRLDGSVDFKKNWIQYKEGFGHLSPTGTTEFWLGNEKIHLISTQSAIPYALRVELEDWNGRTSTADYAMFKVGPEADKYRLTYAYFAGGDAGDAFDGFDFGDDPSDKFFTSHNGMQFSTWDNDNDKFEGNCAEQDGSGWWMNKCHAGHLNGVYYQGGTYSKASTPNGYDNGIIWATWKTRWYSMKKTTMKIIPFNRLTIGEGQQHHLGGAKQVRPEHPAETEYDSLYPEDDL

On to “GST-tagged full-length Extracellular fibrinogen binding protein (Efb), wild type (from UniProt A6QG59) R131E; N138E”, for which the response in the experiment with human complement C3b [1] (Efb about 6 nM (fourth point, read from the x axis), parent: est. 0.93) stood at 0.2 OD450; with human complement C3b [1] (Efb about 25 nM (highest point, read from the x axis), parent: est. 0.91), 0.23 OD450; with human complement C3b [2] it was 180 MFI.

The substance “His-tagged Efb, wild type (from UniProt A6QG59 30-165) (natural protein)” displayed an inhibition of phagocytosis of fluorescent S. aureus by human neutrophils in 2.5% human plasma, dose response of Efb (needs the interaction with C3b as well) with human fibrinogen (human) of 0.08 µM.

Source of the values: PMC3861539.
